Assay results published in PMC4212957, “The serodominant secreted effector protein of Salmonella, SseB, is a strong CD4 antigen containing an immunodominant epitope presented by diverse HLA class II alleles” (Immunology, 2014).

Columns and labels:
HLA-DRB1*07:01 = HLA-DRB1*07:01 (Homo sapiens, UniProt P01903+P01911, A100R/A102G/A103Q/D57E/D86V/E43K/F76Y/K127E/L162R/M171V/P40G/Q125H/Q99D/R33Q/R42Y/R54Q/S133A/S66F/T210M/V115G/Y107V/Y59L/Y89S); details: competitive ELISA; ratio IC50 of peptide / IC50 of reference peptide HA 306–318; lower = higher affinity; ratio 20 or less high, 20–100 moderate; three independent experiments
HLA-DR heterodimers = test: Breadth of binding across the HLA-DR panel; set-up: species or system human; details: of nine HLA-DR molecules screened; competitive ELISA
Method: (§1) HLA-DR heterodimers were purified from homozygous Epstein–Barr virus B-lymphoblastoid cell lines (HPA Culture Collections, Salisbury, UK) by affinity chromatography with the monomorphic HLA-DRα monoclonal antibody, L243.[29],[30] Binding of the SseB peptide panel to the HLA-DR molecules HLA-DRB1*01:01, 03:01, 04:01, 07:01, 09:01, 11:01, 12:02, 15:01, 15:02 was assessed by competitive ELISA, as previously described, using an automated workstation.[29],[30] We evaluated the peptide concentration able to prevent binding of 50% of the labelled peptide (IC50). Data were expressed as relative affinity: ratio of the IC50 of the peptide to the IC50 of the reference peptide, which is a high binder to the HLA class II molecule. Unlabelled forms of the biotinylated peptides were used as reference peptides.
The HLA-DR peptide-binding assay used here was designed to give a strong coverage of commonly expressed alleles across diverse populations. For example, the DR1, 3, 4, 7, 11 and 1501 heterodimers cumulatively cover approximately 80% of individuals in Caucasian populations, whereas DR9, DR1202 and DR1502 are rare in Caucasian populations but are found in around a third of individuals in many South East Asian populations. Of the 18 peptides encompassing the SseB overlapping peptide library, 15 show significant HLA-DR binding (Table2). Eight peptides were able to bind specifically to only one or two alleles, but the seven other binders were able to bind more heterodimers. It is noteworthy that there are three peptides, p2, p11 and p18, with the property of binding 6, 7 and 8 different HLA-DR heterodimers, respectively. They span HLA-DRB sequences with rather diverse peptide-binding pockets.

HLA-DRB1*03:01 = molecular target: T1, HLA-DRB1*03:01 (Homo sapiens, UniProt P01903+P01911, A100K/A102G/A103R/A169T/F55Y/I96L/K41T/L162R/M171V/P40S/Q125H/Q178H/Q39Y/R42S/S66N/T106N/T262R/W38E/Y61H); test: Peptide/HLA-DR binding, competitive ELISA; details: ratio IC50 of peptide / IC50 of reference peptide MT2-16, lower = higher affinity, ratio 20 or less high, 20–100 moderate, three independent experiments
T1 construct: HLA-DR heterodimers were purified from homozygous Epstein–Barr virus B-lymphoblastoid cell lines; host or cells: homozygous EBV B-lymphoblastoid cell line
Method: as §1

HLA-DRB1*12:02 = HLA-DRB1*12:02 (Homo sapiens, UniProt P01903+P01911, A100R/A169T/D57E/D86V/F55L/H45Y/I96F/K41T/L162R/M171V/P40S/Q125H/Q178H/Q39Y/Q99D/R42G/S66L/T262R/V114A/V67L/W38E/Y59H/Y61H/Y89S); test: Peptide/HLA-DR binding, competitive ELISA; details: ratio IC50 of peptide / IC50 of reference peptide TFR 141–155, lower = higher affinity, ratio 20 or less high, 20–100 moderate, three independent experiments
Method: as §1

HLA-DRB1*09:01 = molecular target: T2, HLA-DRB1*09:01 (Homo sapiens, UniProt P01903+P01911, A100R/A103E/D57H/D86V/F55Y/F60I/F76Y/I96F/K127E/L162R/M171V/P40D/Q125H/Q99R/R33Q/R42F/S133A/S66N/T210M/V115G/W38K/Y107V/Y59G/Y89S); test: Peptide/HLA-DR binding, competitive ELISA; details: ratio IC50 of peptide / IC50 of reference peptide CTP 427–441, lower = higher affinity, ratio 20 or less high, 20–100 moderate, three independent experiments
T2 construct: HLA-DR heterodimers were purified from homozygous Epstein–Barr virus B-lymphoblastoid cell lines; host or cells: homozygous EBV B-lymphoblastoid cell line
Method: as §1

HLA-DRB1*15:02 = molecular target: T3, HLA-DRB1*15:02 (Homo sapiens, UniProt P01903+P01911, V115G); test: Peptide/HLA-DR binding, competitive ELISA; details: ratio IC50 of peptide / IC50 of reference peptide TFR 607–620, lower = higher affinity, ratio 20 or less high, 20–100 moderate, three independent experiments
T3 construct: HLA-DR heterodimers were purified from homozygous Epstein–Barr virus B-lymphoblastoid cell lines; host or cells: homozygous EBV B-lymphoblastoid cell line
Method: as §1

[1] = test system: draining lymph node cells of HLA-DR4 transgenic mice; test: Murine IFN-γ ELISpot, HLA-DR4 transgenic mice primed with SseB; details: mouse, in vivo
From the text: Mice transgenic for HLA-DR1 (that is, HLA-DRA1*0101/HLA-DRB1*0101) and HLA-DR4 (that is, HLA-DRA1*0101/HLA-DRB1*0401)[24]–[26] were bred and housed in the Centre for Biological Services at the Hammersmith campus, Imperial College London, UK, in accordance with Home Office regulations and College ethics review. Both transgenic lines are maintained on a C57BL/6 background as homozygotes for knockout of murine MHC Class II H2-Aβ.[27]
HLA-DR1 or HLA-DR4 transgenic mice were primed, by subcutaneous injection into the footpad, with 25 μg of recombinant SseB protein administered as a 1 : 1 emulsion with TiterMax® Gold (CytRx Corporation, Los Angeles, CA). Ten days after priming, popliteal draining lymph nodes were harvested and stimulated, in triplicate, at 2 × 10^5 cells per well with 25 μg of SseB peptide or recombinant protein in pre-coated murine IFN-γ ELISpot plates (2BScientific, Upper Heyford, Oxfordshire, UK). Culture medium was RPMI-1640 containing 2 mM L-glutamine, 50 U/ml penicillin G, 50 μg/ml streptomycin sulphate, 50 μM β-mercaptoethanol and 10% fetal calf serum. Cells were cultured at 37° and in 5% CO2 for 72 hr before assay development using a biotinylated anti-IFN-γ antibody, a horseradish peroxidase detection antibody and TMB substrate (2BScientific). Developed plates were left to dry before spot counting using an AID ELISpot reader (Autoimmun Diagnostika GMBH). Positive epitopes for a given transgenic line were defined as those where more than half of assayed animals gave a greater number of spot-forming cells than 2 SD over the mean of the no protein/peptide control.
Fig 1 Definition of HLA-DR specific T-cell epitopes in DR1 and DR4 transgenic mice. (a) HLA-DR1 (n = 5) and (b) HLA-DR4 (n = 6) mice were footpad primed with ssEB protein in combination with TiterMax® Gold adjuvant. Draining lymph node (DLN) cells were assayed by ELISpot at day 10 for interferon-γ (IFN-γ) T-cell responses to ssEB peptides and protein. A peptide was defined as containing a T-cell epitope for DR1 or DR4 HLA molecules if more than half of the mice assayed gave a greater number of spot-forming cells than 2 SD over the mean of the no peptide/protein control. The 2 SD value for each transgenic line is shown by a dotted line.

Substance | Relative binding affinity of peptide to HLA-DR molecules DRB1*0701 (HLA-DRB1*07:01) | number of different HLA-DR heterodimers bound (HLA-DR heterodimers) | Relative binding affinity of peptide to HLA-DR molecules DRB1*0301 (HLA-DRB1*03:01) | Relative binding affinity of peptide to HLA-DR molecules DRB1*1202 (HLA-DRB1*12:02) | Relative binding affinity of peptide to HLA-DR molecules DRB1*0901 (HLA-DRB1*09:01) | Relative binding affinity of peptide to HLA-DR molecules DRB1*1502 (HLA-DRB1*15:02) | IFN-γ ELISpot recall response / CD4 epitope in HLA-DR4 transgenic mice [1]
2: SseB overlapping library peptide, residues 11–30 (QNPIVFKNSFGVSNADTGSQ) [Peptide 2] | 14 | 6 | > 119 | 59 | 10 | 5 | 
11: SseB overlapping library peptide, residues 101–120 (EDVIKYMRDNGILIDGMTID) [Peptide 11] | 2 | 7 | > 119 | 8 | 34 | 37 | CD4 epitopes detected
AVLTQLTGLISKWGEISSMIAQKTYS [Peptide 18, SseB overlapping library peptide, residues 171–196] | 12 | 8 | > 119 | 4 | 21 | 63 | not DR4
